# In publication PMC10275583, “A symmetry mismatch unraveled: How phage HK97 scaffold flexibly accommodates a 12-fold pore at a 5-fold viral capsid vertex” (Science Advances, 2023):
# Target: the molecule itself
# Assay: cryo-EM structure; HK97 Prohead I particles with portal, purified from E. coli co-expressing genes 3 and 5; buffer 100 mM KCl, 20 mM potassium phosphate pH 7.5; icosahedral map 3.6 A, focused reconstructions of penton vertex (C5, 3.0 A) and portal vertex (no symmetry 3.6 A, C12 3.2 A)
protein,measurement,value
"bacteriophage HK97 portal protein (natural protein, UniProt P49859 1-424, looked up, Portal protein of bacteriophage HK97, wild-type gene 3; 50 N-terminal residues are not visible in the density map and are missing from the model; Dodecamer at one vertex of Prohead I; also called gene 3 product; dodecameric portal complex; source: E. coli BL21 (DE3), plasmid pVPB expressing HK97 genes 3 and 5; purified within Prohead I particles (PEG precipitation, ultracentrifugation, glycerol …)) MEEPKYTIDLRTNNGWWARLKSWFVGGRLVTPNQGSQTGPVSAHGYLGDSSINDERILQISTVWRCVSLISTLTACLPLDVFETDQNDNRKKVDLSNPLARLLRYSPNQYMTAQEFREAMTMQLCFYGNAYALVDRNSAGDVISLLPLQSANMDVKLVGKKVVYRYQRDSEYADFSQKEIFHLKGFGFTGLVGLSPIAFACKSAGVAVAMEDQQRDFFANGAKSPQILSTGEKVLTEQQRSQVEENFKEIAGGPVKKRLWILEAGFSTSAIGVTPQDAEMMASRKFQVSELARFFGVPPHLVGDVEKSTSWGSGIEQQNLGFLQYTLQPYISRWENSIQRWLIPSKDVGRLHAEHNLDGLLRGDSASRAAFMKAMGESGLRTINEMRRTDNMPPLPGGDVAMRQAQYVPITDLGTNKEPRNNGA",stoichiometry N,12
